pIC50, pKd: −log10 of the molar value.
Tests used:
[1] = target: HLA-B*51:01; assay: IEDB peptide-MHC binding, purified MHC/competitive/radioactivity; filed as Kd, often an IC50 or EC50 that approximates it; ≥ and ≤ were set here for values at or beyond the usual limits of such assays
[2] = target: HLA-B*35:01; assay: as above
[3] = target: HLA-B*07:02; assay: as above
[4] = target: HLA-B*53:01; assay: as above
[5] = target: HLA-B*54:01; assay: as above
[6] = target: HLA-A*68:02; assay: as above
[7] = target: HLA-A*02:17; assay: as above
[8] = target: HLA-A*02:03; assay: as above
[9] = target: HLA-A*02:01; assay: as above
[10] = target: HLA-A*02:06; assay: as above
[11] = target: HLA-A*33:01; assay: as above; conditions: source organism: Vaccinia virus WR
[12] = target: HLA-A*03:01; assay: as above; conditions: source organism: Vaccinia virus WR
[13] = target: HLA-A*31:01; assay: as above; conditions: source organism: Vaccinia virus WR
[14] = target: HLA-A*02:02; assay: as above; conditions: source organism: Vaccinia virus WR
[15] = target: HLA-A*11:01; assay: as above; conditions: source organism: Vaccinia virus WR
[16] = target: HLA-A*68:01; assay: as above; conditions: source organism: Vaccinia virus WR
[17] = target: HLA-A*24:02; assay: IEDB peptide-MHC binding, purified MHC/competitive/fluorescence; ≥ and ≤ were set here for values at or beyond the usual limits of such assays
[18] = target: HLA-A*11:01; assay: as above
[19] = target: HLA-A*02:01; assay: as above; conditions: source organism: Zaire ebolavirus
[20] = target: HLA-B*08:01; assay: IEDB peptide-MHC binding, purified MHC/competitive/radioactivity; filed as Kd, often an IC50 or EC50 that approximates it; ≥ and ≤ were set here for values at or beyond the usual limits of such assays
[21] = target: HLA-A*32:01; assay: as above; conditions: source organism: Dengue virus 1 Brazil/97-11/1997
[22] = target: HLA-B*51:01; assay: IEDB peptide-MHC binding, purified MHC/competitive/fluorescence; filed as Kd, often an IC50 or EC50 that approximates it; ≥ and ≤ were set here for values at or beyond the usual limits of such assays; conditions: source organism: Mycobacterium tuberculosis CDC1551
[23] = target: HLA-B*15:01; assay: IEDB peptide-MHC binding, purified MHC/competitive/radioactivity; filed as Kd, often an IC50 or EC50 that approximates it; ≥ and ≤ were set here for values at or beyond the usual limits of such assays; conditions: source organism: Dengue virus 2 Jamaica/1409/1983
[24] = target: HLA-B*57:01; assay: as above; conditions: source organism: Dengue virus 1 Brazil/97-11/1997
[25] = target: HLA-A*30:01; assay: as above; conditions: source organism: Dengue virus 2 Peru/IQT2913/1996
[26] = source organism: SARS coronavirus Tor2
[27] = source organism: Dengue virus 4 Philippines/H241/1956
[28] = source organism: Mammarenavirus lassaense
[29] = source organism: Dengue virus 2 Jamaica/1409/1983
[30] = source organism: Vaccinia virus WR
[31] = source organism: Mammarenavirus machupoense
[32] = source organism: Zaire ebolavirus
[33] = source organism: Dengue virus 1 Singapore/S275/1990
[34] = source organism: Dengue virus 1 Brazil/97-11/1997
[35] = source organism: Hepacivirus hominis
[36] = source organism: Dengue virus 3 Sri Lanka/1266/2000
[37] = source organism: Dengue virus 3 Martinique/1243/1999
[38] = source organism: Triticum aestivum
[39] = source organism: Vaccinia virus
[40] = source organism: Mammarenavirus juninense
[41] = source organism: Mammarenavirus guanaritoense
[42] = source organism: Dengue virus 3 China/80-2/1980
[43] = source organism: Dengue virus 2 Thailand/NGS-C/1944
[44] = source organism: Dengue virus 2 Peru/IQT2913/1996

Sequence: LPFTLGIMAI
- pKd [1, 26]: 5.92
- pKd [2, 26]: 5.30
- pKd [3, 26]: 6.13
- pKd [4, 26]: 6.31
- pKd [5, 26]: 6.82

Sequence: TMFGGVSWMV
- pKd [6, 27]: 8.27
- pKd [7, 27]: 6.47
- pKd [8, 27]: 7.19
- pKd [9, 27]: 8.35
- pKd [10, 27]: 8.65

Sequence: YPSMFEKHI
- pKd [1, 28]: 6.28
- pKd [2, 28]: 6.05
- pKd [3, 28]: 4.79
- pKd [4, 28]: 6.64
- pKd [5, 28]: ≤ 4.69

Sequence: MLLILCVTQV
- pKd [7, 29]: 6.80
- pKd [8, 29]: 7.74
- pKd [9, 29]: 8.38
- pKd [10, 29]: 8.10

Sequence: YIIRVTTEL
- pKd [6, 30]: 6.83
- pKd [11]: ≤ 4.11
- pKd [1, 30]: 4.84
- pKd [8, 30]: 7.75
- pKd [2, 30]: 4.84
- pKd [12]: ≤ 4.11
- pKd [13]: ≤ 4.11
- pKd [14]: 9.07
- pKd [15]: ≤ 4.11
- pKd [3, 30]: 6.28
- pKd [4, 30]: ≤ 4.44
- pKd [10, 30]: 7.74
- pKd [16]: ≤ 4.19
- pKd [5, 30]: ≤ 4.11

Sequence: TPVSMTYLY
- pKd [1, 30]: ≤ 4.11
- pKd [2, 30]: 10.18
- pKd [3, 30]: 6.77
- pKd [5, 30]: 6.01

Sequence: LPHLCLDYKV
- pKd [1, 30]: 6.44
- pKd [2, 30]: 5.00
- pKd [3, 30]: 5.07
- pKd [4, 30]: 5.97
- pKd [5, 30]: 8.30

Sequence: MPALTIACM
- pKd [1, 31]: 5.43
- pKd [2, 31]: 8.28
- pKd [3, 31]: 6.85
- pKd [4, 31]: 7.59
- pKd [5, 31]: 6.08

Sequence: IPFIAYFVLM
- pKd [6, 30]: 5.03
- pKd [11]: 5.83
- pKd [1, 30]: 5.65
- pKd [8, 30]: 5.69
- pKd [2, 30]: 5.92
- pKd [12]: 6.18
- pKd [13]: 6.19
- pKd [14]: 5.50
- pKd [15]: 5.34
- pKd [3, 30]: ≤ 4.40
- pKd [9, 30]: 5.88
- pKd [4, 30]: 5.89
- pKd [10, 30]: 5.10
- pKd [16]: 5.83
- pKd [5, 30]: 5.70

Sequence: NVPGPHRTI
- pIC50 [17, 32]: 5.66
- pIC50 [18, 32]: 4.26
- pIC50 [19]: 4.80

Sequence: WMTTEDMLSV
- pKd [7, 33]: 6.23
- pKd [8, 34]: 8.05
- pKd [9, 33]: 7.73
- pKd [10, 34]: 7.97

Sequence: VILFIMFMLI
- pKd [6, 30]: 5.97
- pKd [11]: 6.29
- pKd [1, 30]: 5.12
- pKd [8, 30]: 6.11
- pKd [12]: 7.09
- pKd [13]: 6.89
- pKd [14]: 6.14
- pKd [15]: 6.45
- pKd [3, 30]: 5.26
- pKd [4, 30]: 5.77
- pKd [10, 30]: 5.85
- pKd [16]: 6.95
- pKd [5, 30]: 6.09

Sequence: RPALVFDIT
- pKd [1, 35]: ≤ 4.51
- pKd [2, 35]: 5.68
- pKd [20, 35]: 5.54
- pKd [4, 35]: ≤ 4.30
- pKd [5, 35]: 7.02

Sequence: ILAGVSLLPV
- pKd [7, 36]: 5.77
- pKd [8, 37]: 8.09
- pKd [9, 36]: 8.33
- pKd [10, 37]: 8.80

Sequence: TPLVQPVGAL
- pKd [1, 26]: 5.63
- pKd [2, 26]: 5.28
- pKd [3, 26]: 7.06
- pKd [4, 26]: 5.76
- pKd [5, 26]: 6.31

Sequence: LPYPQPQPF
- pKd [1, 38]: 8.55
- pKd [2, 38]: 8.60
- pKd [3, 38]: 7.16
- pKd [4, 38]: 7.79
- pKd [5, 38]: 6.13

Sequence: QLWATLLSL
- pKd [7, 33]: 7.30
- pKd [9, 33]: 8.94

Sequence: IMAIGIVSI
- pKd [21]: 7.11
- pKd [7, 34]: 6.16
- pKd [8, 34]: 7.87
- pKd [9, 34]: 7.88

Sequence: MVIENGILKK
- pKd [6, 30]: 4.95
- pKd [11]: ≤ 4.45
- pKd [1, 30]: ≤ 4.16
- pKd [8, 30]: ≤ 4.15
- pKd [2, 30]: ≤ 4.52
- pKd [12]: 7.42
- pKd [13]: 5.31
- pKd [14]: ≤ 4.15
- pKd [15]: 7.91
- pKd [3, 30]: ≤ 4.16
- pKd [9, 30]: ≤ 4.16
- pKd [4, 30]: ≤ 4.16
- pKd [10, 30]: ≤ 4.16
- pKd [16]: 7.83
- pKd [5, 30]: ≤ 4.16

Sequence: TLMLLALIAV
- pKd [7, 33]: 5.04
- pKd [8, 34]: 7.54
- pKd [9, 33]: 8.12
- pKd [10, 34]: 7.28

Sequence: GGKVFAPKQ
- pIC50 [17, 39]: ≤ 2.65
- pIC50 [18, 39]: ≤ 3.61

Sequence: HPDMDSMMI
- pKd [1, 40]: 5.48
- pKd [2, 40]: 5.83
- pKd [3, 40]: 6.09
- pKd [4, 40]: 6.78
- pKd [5, 40]: ≤ 4.16

Sequence: LPPGSDEHI
- pKd [22]: ≤ 4.70

Sequence: LMMRTTWAL
- pKd [7, 29]: 7.44
- pKd [8, 29]: 9.33
- pKd [23]: 9.92
- pKd [20, 29]: 8.88
- pKd [9, 29]: 8.87
- pKd [10, 29]: 8.09

Sequence: LPIFSEFVL
- pKd [1, 41]: 4.73
- pKd [2, 41]: 8.07
- pKd [3, 41]: 6.66
- pKd [4, 41]: 7.25
- pKd [5, 41]: 6.31

Sequence: SVLLWMASV
- pKd [7, 33]: 7.68
- pKd [9, 33]: 8.20
- pKd [10, 33]: 7.80

Sequence: ILWENNIKL
- pKd [7, 42]: 7.04

Sequence: VLSIVSLFPL
- pKd [24]: 6.97
- pKd [7, 33]: 8.10
- pKd [9, 33]: 8.07

Sequence: FSLGLLCISI
- pKd [1, 33]: ≤ 4.39
- pKd [7, 33]: 6.03
- pKd [9, 33]: 8.12
- pKd [10, 33]: 8.59

Sequence: VPSVNEYHML
- pKd [1, 30]: ≤ 4.28
- pKd [2, 30]: 5.36
- pKd [3, 30]: 5.92
- pKd [4, 30]: 5.66
- pKd [5, 30]: ≤ 4.16

Sequence: ILALFLAHYI
- pKd [7, 42]: 6.58
- pKd [8, 37]: 7.47

Sequence: HPLADNKFAL
- pKd [1, 26]: 6.00
- pKd [2, 26]: 6.73
- pKd [3, 26]: 7.01
- pKd [4, 26]: 6.11
- pKd [5, 26]: 5.15

Sequence: GMIIMLIPTV
- pKd [25]: 4.90
- pKd [7, 43]: 5.18
- pKd [8, 44]: 8.35
- pKd [9, 43]: 7.15
- pKd [10, 44]: 7.02

Sequence: TIMAAILAYT
- pKd [6, 29]: 7.06
- pKd [7, 29]: 4.91
- pKd [8, 29]: 8.03
- pKd [9, 29]: 7.48

Sequence: APIKEFKAKI
- pKd [1, 30]: ≤ 4.65
- pKd [2, 30]: ≤ 4.38
- pKd [3, 30]: 7.69
- pKd [4, 30]: 4.92
- pKd [5, 30]: 4.95

Sequence: YTMCSGKFSI
- pKd [6, 27]: 8.84
- pKd [7, 27]: 6.27
- pKd [9, 27]: 7.10

Sequence: IILEFFLIV
- pKd [7, 29]: 7.05
- pKd [10, 29]: 9.42

Reference: the Immune Epitope Database (IEDB)
